From publication PMC10786891, “Massively parallel profiling of RNA-targeting CRISPR-Cas13d”

T1: EsCas13d, nuclease-dead (Eubacterium siraeum, UniProt B0MS50, R295A;H300A;R849A;H854A)
T1 sequence: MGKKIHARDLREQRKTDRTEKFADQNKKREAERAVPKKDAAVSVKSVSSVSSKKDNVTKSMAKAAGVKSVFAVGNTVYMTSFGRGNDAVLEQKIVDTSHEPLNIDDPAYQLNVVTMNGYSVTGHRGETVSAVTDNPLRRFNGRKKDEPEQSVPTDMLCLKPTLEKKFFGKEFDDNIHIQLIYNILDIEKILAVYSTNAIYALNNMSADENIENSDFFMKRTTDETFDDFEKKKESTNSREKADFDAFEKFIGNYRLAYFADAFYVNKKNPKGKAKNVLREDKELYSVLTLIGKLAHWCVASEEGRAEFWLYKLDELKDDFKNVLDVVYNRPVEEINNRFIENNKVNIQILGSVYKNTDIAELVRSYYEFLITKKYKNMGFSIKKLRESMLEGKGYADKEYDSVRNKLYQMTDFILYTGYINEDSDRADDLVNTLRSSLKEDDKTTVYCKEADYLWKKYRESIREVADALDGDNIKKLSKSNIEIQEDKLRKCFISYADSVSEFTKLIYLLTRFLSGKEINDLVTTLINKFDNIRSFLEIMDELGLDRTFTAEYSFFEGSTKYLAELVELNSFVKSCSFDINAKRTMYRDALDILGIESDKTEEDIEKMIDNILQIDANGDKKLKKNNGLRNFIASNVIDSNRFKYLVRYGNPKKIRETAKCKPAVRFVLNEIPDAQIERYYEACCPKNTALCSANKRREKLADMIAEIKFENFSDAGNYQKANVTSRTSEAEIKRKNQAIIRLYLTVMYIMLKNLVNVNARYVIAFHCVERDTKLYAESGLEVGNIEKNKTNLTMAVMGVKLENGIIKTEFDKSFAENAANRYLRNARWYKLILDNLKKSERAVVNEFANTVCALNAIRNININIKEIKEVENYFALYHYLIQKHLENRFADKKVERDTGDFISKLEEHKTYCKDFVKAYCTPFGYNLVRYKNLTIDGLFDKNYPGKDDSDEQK


Biological target: T1, EsCas13d, nuclease-dead
Assay: crRNA (strand 1, pre-loaded); Mg2+; 40 mM Tris-HCl pH 7.5, 150 mM NaCl, 6 mM MgCl2, 1 mM DTT, 0.1% Tween-20, 0.2 mg/ml BSA; 25 C; 10 min per concentration, then washed
Details: tags: His6-TwinStrep-SUMO cleaved; N-terminal SNAP kept (SNAP-Surface 488); label: 3' end held by stalled T7 RNA polymerase

| Binder | Kd [nM] |
| --- | --- |
| target 3 U2C,C6U (mixed) RNA 1: CACCCGUGCAAAAUUGCAGGGGUCUAAAACGACCUGAAUAUUUCAGAUCAAA RNA 2: GGGAAUGGAUCCACAUCUACGAAUUCGUUUUUGAUCUGAAAUAUUUAGGCCUGCAGAUCGGAAGAGCACACGU | 52.5 ± 7 |
| target 3 insA 3' of 6,insG 3' of 1 (mixed) RNA 1: CACCCGUGCAAAAUUGCAGGGGUCUAAAACGACCUGAAUAUUUCAGAUCAAA RNA 2: GGGAAUGGAUCCACAUCUACGAAUUCGUUUUUGAUCUGAAAUAUUCAAGGUCGUGCAGAUCGGAAGAGCACACGU | 32 ± 11 |
| target 3 insA 3' of 8,insU 3' of 5 (mixed) RNA 1: CACCCGUGCAAAAUUGCAGGGGUCUAAAACGACCUGAAUAUUUCAGAUCAAA RNA 2: GGGAAUGGAUCCACAUCUACGAAUUCGUUUUUGAUCUGAAAUAUAUCAUGGUCUGCAGAUCGGAAGAGCACACGU | 33.9 ± 3.75 |
| target 3 insC 3' of 3,insA 3' of 1 (mixed) RNA 1: CACCCGUGCAAAAUUGCAGGGGUCUAAAACGACCUGAAUAUUUCAGAUCAAA RNA 2: GGGAAUGGAUCCACAUCUACGAAUUCGUUUUUGAUCUGAAAUAUUCAGGCUCAUGCAGAUCGGAAGAGCACACGU | 83 ± 17 |
| target 3 A5C,U7A (mixed) RNA 1: CACCCGUGCAAAAUUGCAGGGGUCUAAAACGACCUGAAUAUUUCAGAUCAAA RNA 2: GGGAAUGGAUCCACAUCUACGAAUUCGUUUUUGAUCUGAAAUAUACCGGUCUGCAGAUCGGAAGAGCACACGU | 77.5 ± 13.5 |
| target 3 insG 3' of 5,insC 3' of 4 (mixed) RNA 1: CACCCGUGCAAAAUUGCAGGGGUCUAAAACGACCUGAAUAUUUCAGAUCAAA RNA 2: GGGAAUGGAUCCACAUCUACGAAUUCGUUUUUGAUCUGAAAUAUUCAGGCGUCUGCAGAUCGGAAGAGCACACGU | 7.65 ± 1.2 |
| target 3 insU 3' of 11,insC 3' of 3 (mixed) RNA 1: CACCCGUGCAAAAUUGCAGGGGUCUAAAACGACCUGAAUAUUUCAGAUCAAA RNA 2: GGGAAUGGAUCCACAUCUACGAAUUCGUUUUUGAUCUGAAAUUAUUCAGGCUCUGCAGAUCGGAAGAGCACACGU | 58 ± 9.5 |
| target 3 insA 3' of 22,insU 3' of 22 (mixed) RNA 1: CACCCGUGCAAAAUUGCAGGGGUCUAAAACGACCUGAAUAUUUCAGAUCAAA RNA 2: GGGAAUGGAUCCACAUCUACGAAUUCGUUUAUUUGAUCUGAAAUAUUCAGGUCUGCAGAUCGGAAGAGCACACGU | 14.6 ± 1.45 |
| target 3 insU 3' of 11,insU 3' of 6 (mixed) RNA 1: CACCCGUGCAAAAUUGCAGGGGUCUAAAACGACCUGAAUAUUUCAGAUCAAA RNA 2: GGGAAUGGAUCCACAUCUACGAAUUCGUUUUUGAUCUGAAAUUAUUCUAGGUCUGCAGAUCGGAAGAGCACACGU | 95 ± 14.5 |
| target 3 G4A,U22A (mixed) RNA 1: CACCCGUGCAAAAUUGCAGGGGUCUAAAACGACCUGAAUAUUUCAGAUCAAA RNA 2: GGGAAUGGAUCCACAUCUACGAAUUCGUUAUUGAUCUGAAAUAUUCAAGUCUGCAGAUCGGAAGAGCACACGU | 5.71 ± 0.47 |
| target 3 insC 3' of 3,insU 3' of 1 (mixed) RNA 1: CACCCGUGCAAAAUUGCAGGGGUCUAAAACGACCUGAAUAUUUCAGAUCAAA RNA 2: GGGAAUGGAUCCACAUCUACGAAUUCGUUUUUGAUCUGAAAUAUUCAGGCUCUUGCAGAUCGGAAGAGCACACGU | 46 ± 6 |
| target 3 insA 3' of 21,insC 3' of 21 (mixed) RNA 1: CACCCGUGCAAAAUUGCAGGGGUCUAAAACGACCUGAAUAUUUCAGAUCAAA RNA 2: GGGAAUGGAUCCACAUCUACGAAUUCGUUUUACUGAUCUGAAAUAUUCAGGUCUGCAGAUCGGAAGAGCACACGU | 47 ± 11.5 |
| target 3 A12G,U21A (mixed) RNA 1: CACCCGUGCAAAAUUGCAGGGGUCUAAAACGACCUGAAUAUUUCAGAUCAAA RNA 2: GGGAAUGGAUCCACAUCUACGAAUUCGUUUAUGAUCUGAGAUAUUCAGGUCUGCAGAUCGGAAGAGCACACGU | 97.5 ± 47 |
| target 3 G4U,G19U (mixed) RNA 1: CACCCGUGCAAAAUUGCAGGGGUCUAAAACGACCUGAAUAUUUCAGAUCAAA RNA 2: GGGAAUGGAUCCACAUCUACGAAUUCGUUUUUUAUCUGAAAUAUUCAUGUCUGCAGAUCGGAAGAGCACACGU | 77.5 ± 10 |
| target 3 G4A,U7G (mixed) RNA 1: CACCCGUGCAAAAUUGCAGGGGUCUAAAACGACCUGAAUAUUUCAGAUCAAA RNA 2: GGGAAUGGAUCCACAUCUACGAAUUCGUUUUUGAUCUGAAAUAUGCAAGUCUGCAGAUCGGAAGAGCACACGU | 30.2 ± 3.35 |
| target 3 insA 3' of 7,insU 3' of 4 (mixed) RNA 1: CACCCGUGCAAAAUUGCAGGGGUCUAAAACGACCUGAAUAUUUCAGAUCAAA RNA 2: GGGAAUGGAUCCACAUCUACGAAUUCGUUUUUGAUCUGAAAUAUUACAGUGUCUGCAGAUCGGAAGAGCACACGU | 12.7 ± 1.2 |
| target 3 insU 3' of 16 (mixed) RNA 1: CACCCGUGCAAAAUUGCAGGGGUCUAAAACGACCUGAAUAUUUCAGAUCAAA RNA 2: GGGAAUGGAUCCACAUCUACGAAUUCGUUUUUGAUCUUGAAAUAUUCAGGUCUGCAGAUCGGAAGAGCACACGU | 64 ± 8.5 |
| target 3 del1,del22 (mixed) RNA 1: CACCCGUGCAAAAUUGCAGGGGUCUAAAACGACCUGAAUAUUUCAGAUCAAA RNA 2: GGGAAUGGAUCCACAUCUACGAAUUCGUUUUGAUCUGAAAUAUUCAGGUUGCAGAUCGGAAGAGCACACGU | 29 ± 6 |
| target 3 C6U,A18G (mixed) RNA 1: CACCCGUGCAAAAUUGCAGGGGUCUAAAACGACCUGAAUAUUUCAGAUCAAA RNA 2: GGGAAUGGAUCCACAUCUACGAAUUCGUUUUUGGUCUGAAAUAUUUAGGUCUGCAGAUCGGAAGAGCACACGU | 20.3 ± 2.65 |
| target 3 insA 3' of 15,insA 3' of 2 (mixed) RNA 1: CACCCGUGCAAAAUUGCAGGGGUCUAAAACGACCUGAAUAUUUCAGAUCAAA RNA 2: GGGAAUGGAUCCACAUCUACGAAUUCGUUUUUGAUCUAGAAAUAUUCAGGUACUGCAGAUCGGAAGAGCACACGU | ~64 |
| target 3 insA 3' of 6,insA 3' of 1 (mixed) RNA 1: CACCCGUGCAAAAUUGCAGGGGUCUAAAACGACCUGAAUAUUUCAGAUCAAA RNA 2: GGGAAUGGAUCCACAUCUACGAAUUCGUUUUUGAUCUGAAAUAUUCAAGGUCAUGCAGAUCGGAAGAGCACACGU | 53 ± 18 |
| target 3 insC 3' of 12,insU 3' of 4 (mixed) RNA 1: CACCCGUGCAAAAUUGCAGGGGUCUAAAACGACCUGAAUAUUUCAGAUCAAA RNA 2: GGGAAUGGAUCCACAUCUACGAAUUCGUUUUUGAUCUGAACAUAUUCAGUGUCUGCAGAUCGGAAGAGCACACGU | ~64.5 |
| target 3 C6G,U22C (mixed) RNA 1: CACCCGUGCAAAAUUGCAGGGGUCUAAAACGACCUGAAUAUUUCAGAUCAAA RNA 2: GGGAAUGGAUCCACAUCUACGAAUUCGUUCUUGAUCUGAAAUAUUGAGGUCUGCAGAUCGGAAGAGCACACGU | 36.5 ± 6 |
| target 3 insC 3' of 3,insG 3' of 1 (mixed) RNA 1: CACCCGUGCAAAAUUGCAGGGGUCUAAAACGACCUGAAUAUUUCAGAUCAAA RNA 2: GGGAAUGGAUCCACAUCUACGAAUUCGUUUUUGAUCUGAAAUAUUCAGGCUCGUGCAGAUCGGAAGAGCACACGU | 27.1 ± 7.05 |
| target 3 insC 3' of 3 (mixed) RNA 1: CACCCGUGCAAAAUUGCAGGGGUCUAAAACGACCUGAAUAUUUCAGAUCAAA RNA 2: GGGAAUGGAUCCACAUCUACGAAUUCGUUUUUGAUCUGAAAUAUUCAGGCUCUGCAGAUCGGAAGAGCACACGU | 19.4 ± 2.05 |
| target 3 U2G,U8A (mixed) RNA 1: CACCCGUGCAAAAUUGCAGGGGUCUAAAACGACCUGAAUAUUUCAGAUCAAA RNA 2: GGGAAUGGAUCCACAUCUACGAAUUCGUUUUUGAUCUGAAAUAAUCAGGGCUGCAGAUCGGAAGAGCACACGU | 21.6 ± 3.55 |
| target 1 insG 3' of 3 (mixed) RNA 1: CACCCGUGCAAAAAUGCAGGGGUCUAAAACUGAGCGGAUAACCUCUCUAUGG RNA 2: GGGAAUGGAUCCACAUCUACGAAUUCGUACCAUAGAGAGGUUAUCCGCUGCACCGAGAUCGGAAGAGCACACGU | 7.3 ± 0.6 |
| target 1 G5C,C22U (mixed) RNA 1: CACCCGUGCAAAAAUGCAGGGGUCUAAAACUGAGCGGAUAACCUCUCUAUGG RNA 2: GGGAAUGGAUCCACAUCUACGAAUUCGUAUCAUAGAGAGGUUAUCCCCUCACCGAGAUCGGAAGAGCACACGU | 22.6 ± 2.9 |
